Test results as given in patent publication US20220153864A1.

Tests used:
[1] = target: 32 different targets including GPC3, GPC5, and other TNF receptor proteins; assay: off-target ELISA on 32 coated targets, sum of the ratios at 100 nM and 10 nM
[2] = target: 32 different targets including GPC3, GPC5, and other TNF receptor proteins; assay: off-target ELISA on 32 coated targets, binder at 10 nM, signals normalized to control antibody SEQ ID NOs: 106 and 107 and summed
[3] = target: 32 different targets including GPC3, GPC5, and other TNF receptor proteins; assay: off-target ELISA on 32 coated targets, binder at 100 nM, signals normalized to control antibody SEQ ID NOs: 106 and 107 and summed

B1: GPC3 antibody as included in the fusion protein (SEQ ID NOs: 81 and 82) (antibody, human IgG4 S228P, kappa, F234A L235A, V domains shown)
VH: QVQLVQSGAEVKKPGASVKVSCKASGYTFTDYEMHWVRQAPGQGLEWMGALDPKTGDTAYSQKFKGRVTLTADKSTSTAYMELSSLTSEDTAVYYCTRFYSYTYWGQGTLVTLVS
VL: DVVMTQSPLSLPVTPGEPASISCRSSQSLVHSNRNTYLHWYLQKPGQSPQLLIYKVSNRFSGVPDRFSGSGSGTDFTLKISRVEAEDVGVYYCSQNTHVPPTFGQGTKLEIKR
With B1 the sum of cumulative binding ratios [1] was 129, the cumulative binding ratio [2] was 48 and the cumulative binding ratio [3] was 81.
